Assay results reported in publication doi:10.1101/2023.06.17.545410 (bioRxiv, 2023).

Target: T1, HsTHUMPD2 (purified) (human, UniProt Q9BTF0-1 1-503)
T1 sequence (looked up): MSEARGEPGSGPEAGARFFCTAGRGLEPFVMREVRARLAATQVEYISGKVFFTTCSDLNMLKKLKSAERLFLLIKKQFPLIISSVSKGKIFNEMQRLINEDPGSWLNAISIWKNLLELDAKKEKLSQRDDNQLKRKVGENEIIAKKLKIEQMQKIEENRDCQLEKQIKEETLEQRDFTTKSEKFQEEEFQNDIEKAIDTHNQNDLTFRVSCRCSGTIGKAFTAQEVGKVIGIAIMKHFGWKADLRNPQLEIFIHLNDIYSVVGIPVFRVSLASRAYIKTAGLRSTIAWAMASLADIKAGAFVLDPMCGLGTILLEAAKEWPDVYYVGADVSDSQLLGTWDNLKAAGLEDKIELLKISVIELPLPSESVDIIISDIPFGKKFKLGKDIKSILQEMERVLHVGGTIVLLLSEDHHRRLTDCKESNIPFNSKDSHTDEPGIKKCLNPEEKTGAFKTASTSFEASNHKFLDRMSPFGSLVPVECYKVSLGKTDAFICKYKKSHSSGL
Test: SEC

B1: HsTRMT112 (purified) (natural protein, human, UniProt Q9UI30-1 1-125, looked up)
chain: MKLLTHNLLSSHVRGVGSRGFPLRLQATEVRICPVEFNPNFVARMIPKVEWSAFLEAADNLRLIQVPKGPVEGYEENEEFLRTMHHLLLEVEVIEGTLQCPESGRMFPISRGIPNMLLSEEETES
  binding result: binds
